“And” between values parts separate entries of the source, which are not always exact repeats. Equal values may be shown once.
Target: PD-L1 on CHO-PDL1-CD3L cells (UniProt Q9NZQ7 19-290, limits assumed)
Assay: cell-based or functional assay

PD-L1 on CHO-PDL1-CD3L cells, sequence (Q9NZQ7 19-290 limits assumed): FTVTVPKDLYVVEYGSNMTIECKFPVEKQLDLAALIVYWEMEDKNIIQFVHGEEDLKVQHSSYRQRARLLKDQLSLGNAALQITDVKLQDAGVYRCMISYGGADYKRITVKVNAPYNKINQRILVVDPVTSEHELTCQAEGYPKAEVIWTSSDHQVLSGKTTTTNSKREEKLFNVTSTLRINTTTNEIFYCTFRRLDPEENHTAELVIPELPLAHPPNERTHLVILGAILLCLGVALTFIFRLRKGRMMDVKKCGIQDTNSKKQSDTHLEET

Biological activity (EC50 of reference sample/EC50 of test sample x 100%): 100%
EC50 (nmol/L), reporter gene assay (CHO-PDL1-CD3L + Jurkat-PD-1-NFAT, luciferase RLU): 4.6 nmol/L and 4.15 nmol/L
B1: PD-L1 antibody (humanized 5G11-IgG1 antibody of CN107001463) (antibody, V domains shown)
VH: QITLKESGPTLVKPTQTLTLTCTVSGFSLSTYGVHWIRQPPGKALEWLGVIWRGVTTDYNAAFMSRLTITKDNSKNQVVLTMNNMDPVDTATYYCARLGFYAMDYWGQGTLVTVSS
VL: DIQMTQSPSSLSASVGDRVTITCKASQSVSNDVAWYQQKPGKAPKLLIYYAANRYTGVPDRFSGSGYGTDFTFTISSLQPEDIATYFCQQDYTSPYTFGQGTKLEIKR

From patent US20220289825A1 (NANJING SHUNXIN PHARMACEUTICALS CO LTD OF CHIATAI TIANQING …, published 2022)
